Assay results taken from patent publication US11833164B2, “Methods of treating Fabry disease in patients having a mutation in the GLA gene” (Amicus Therapeutics, Inc., priority 2019, dated 2023).

Test system: mutant form of α-Gal A expressed in HEK-293 cells
Experiment: HEK assay (GLP HEK / Migalastat Amenability Assay): α-Gal A activity in lysates of transiently transfected HEK-293 cells incubated with or without 10 μM migalastat
Assay type: cell-based, human
Details: for Absolute increase (% WT) / Relative increase: 10 μM migalastat versus baseline; for Baseline α-Gal A activity (% WT): absence of migalastat; for Baseline α-Gal A activity (% WT) / 10 μM migalastat α-Gal A activity (% WT): percentage of baseline wild-type α-Gal A activity; for Baseline α-Gal A activity (% WT) / Baseline α-Gal A activity / 10 μM migalastat α-Gal A activity / 10 μM migalastat α-Gal A activity (% WT): mean ± SEM; for Baseline α-Gal A activity / 10 μM migalastat α-Gal A activity: lysates of HEK-293 cells transiently transfected with the mutant form; for Baseline α-Gal A activity: incubated 5 days in absence of migalastat; for 10 μM migalastat α-Gal A activity: incubated 5 days with 10 μM migalastat; for 10 μM migalastat α-Gal A activity (% WT): with 10 μM migalastat, 5 days
In short: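 Activity reported as 4-MU released (nmol/mg/hr), mean±SEM, from lysates of transiently transfected HEK-293 cells expressing mutant α-Gal A, cultured with or without 10 μM migalastat.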

Molecule | Absolute increase (% WT) | Relative increase | Baseline α-Gal A activity (% WT) | Baseline α-Gal A activity | 10 μM migalastat α-Gal A activity | 10 μM migalastat α-Gal A activity (% WT)
L324V (protein) MQLRNPELHLGCALALRFLALVSWDIPGARALDNGLARTPTMGWLHWERFMCNLDCQEEPDSCISEKLFMEMAELMVSEGWKDAGYEYLCIDDCWMAPQRDSEGRLQADPQRFPHGIRQLANYVHSKGLKLGIYADVGNKTCAGFPGSFGYYDIDAQTFADWGVDLLKFDGCYCDSLENLADGYKHMSLALNRTGRSIVYSCEWPLYMWPFQKPNYTEIRQYCNHWRNFADIDDSWKSIKSILDWTSFNQERIVDVAGPGGWNDPDMLVIGNFGLSWNQQVTQMALWAIMAAPLFMSNDLRHISPQAKALLQDKDVIAINQDPVGKQGYQLRQGDNFEVWERPLSGLAWAVAMINRQEIGGPRSYTIAVASLGKGVACNPACFITQLLPVKRKLGFYEWTSRLRSHINPTGTVLLQLENTMQMSLKDLL | 13.0 % WT | 1.2 | 57.2 ± 2.1 % WT | 17027 ± 1167 nmol/mg/h | 20866 ± 1331 nmol/mg/h | 70.2 ± 2 % WT
K326E (protein) MQLRNPELHLGCALALRFLALVSWDIPGARALDNGLARTPTMGWLHWERFMCNLDCQEEPDSCISEKLFMEMAELMVSEGWKDAGYEYLCIDDCWMAPQRDSEGRLQADPQRFPHGIRQLANYVHSKGLKLGIYADVGNKTCAGFPGSFGYYDIDAQTFADWGVDLLKFDGCYCDSLENLADGYKHMSLALNRTGRSIVYSCEWPLYMWPFQKPNYTEIRQYCNHWRNFADIDDSWKSIKSILDWTSFNQERIVDVAGPGGWNDPDMLVIGNFGLSWNQQVTQMALWAIMAAPLFMSNDLRHISPQAKALLQDKDVIAINQDPLGEQGYQLRQGDNFEVWERPLSGLAWAVAMINRQEIGGPRSYTIAVASLGKGVACNPACFITQLLPVKRKLGFYEWTSRLRSHINPTGTVLLQLENTMQMSLKDLL | 25.3 % WT | 1.4 | 55.6 ± 2.6 % WT | 15541 ± 832 nmol/mg/h | 22340 ± 828 nmol/mg/h | 80.9 ± 3.9 % WT
K326R (protein) MQLRNPELHLGCALALRFLALVSWDIPGARALDNGLARTPTMGWLHWERFMCNLDCQEEPDSCISEKLFMEMAELMVSEGWKDAGYEYLCIDDCWMAPQRDSEGRLQADPQRFPHGIRQLANYVHSKGLKLGIYADVGNKTCAGFPGSFGYYDIDAQTFADWGVDLLKFDGCYCDSLENLADGYKHMSLALNRTGRSIVYSCEWPLYMWPFQKPNYTEIRQYCNHWRNFADIDDSWKSIKSILDWTSFNQERIVDVAGPGGWNDPDMLVIGNFGLSWNQQVTQMALWAIMAAPLFMSNDLRHISPQAKALLQDKDVIAINQDPLGRQGYQLRQGDNFEVWERPLSGLAWAVAMINRQEIGGPRSYTIAVASLGKGVACNPACFITQLLPVKRKLGFYEWTSRLRSHINPTGTVLLQLENTMQMSLKDLL | 48.0 % WT | 1.8 | 61.7 ± 3.4 % WT | 17744 ± 923 nmol/mg/h | 31690 ± 1112 nmol/mg/h | 109.7 ± 2.9 % WT
K326M (protein) MQLRNPELHLGCALALRFLALVSWDIPGARALDNGLARTPTMGWLHWERFMCNLDCQEEPDSCISEKLFMEMAELMVSEGWKDAGYEYLCIDDCWMAPQRDSEGRLQADPQRFPHGIRQLANYVHSKGLKLGIYADVGNKTCAGFPGSFGYYDIDAQTFADWGVDLLKFDGCYCDSLENLADGYKHMSLALNRTGRSIVYSCEWPLYMWPFQKPNYTEIRQYCNHWRNFADIDDSWKSIKSILDWTSFNQERIVDVAGPGGWNDPDMLVIGNFGLSWNQQVTQMALWAIMAAPLFMSNDLRHISPQAKALLQDKDVIAINQDPLGMQGYQLRQGDNFEVWERPLSGLAWAVAMINRQEIGGPRSYTIAVASLGKGVACNPACFITQLLPVKRKLGFYEWTSRLRSHINPTGTVLLQLENTMQMSLKDLL | 63.2 % WT | 3.7 | 24.4 ± 1.6 % WT | 8482 ± 500 nmol/mg/h | 31204 ± 1979 nmol/mg/h | 87.6 ± 3.5 % WT
G325A (protein) MQLRNPELHLGCALALRFLALVSWDIPGARALDNGLARTPTMGWLHWERFMCNLDCQEEPDSCISEKLFMEMAELMVSEGWKDAGYEYLCIDDCWMAPQRDSEGRLQADPQRFPHGIRQLANYVHSKGLKLGIYADVGNKTCAGFPGSFGYYDIDAQTFADWGVDLLKFDGCYCDSLENLADGYKHMSLALNRTGRSIVYSCEWPLYMWPFQKPNYTEIRQYCNHWRNFADIDDSWKSIKSILDWTSFNQERIVDVAGPGGWNDPDMLVIGNFGLSWNQQVTQMALWAIMAAPLFMSNDLRHISPQAKALLQDKDVIAINQDPLAKQGYQLRQGDNFEVWERPLSGLAWAVAMINRQEIGGPRSYTIAVASLGKGVACNPACFITQLLPVKRKLGFYEWTSRLRSHINPTGTVLLQLENTMQMSLKDLL | 34.4 % WT | 1.5 | 64.9 ± 3.8 % WT | 18183 ± 1254 nmol/mg/h | 27523 ± 1456 nmol/mg/h | 99.2 ± 5.4 % WT
G325C (protein) MQLRNPELHLGCALALRFLALVSWDIPGARALDNGLARTPTMGWLHWERFMCNLDCQEEPDSCISEKLFMEMAELMVSEGWKDAGYEYLCIDDCWMAPQRDSEGRLQADPQRFPHGIRQLANYVHSKGLKLGIYADVGNKTCAGFPGSFGYYDIDAQTFADWGVDLLKFDGCYCDSLENLADGYKHMSLALNRTGRSIVYSCEWPLYMWPFQKPNYTEIRQYCNHWRNFADIDDSWKSIKSILDWTSFNQERIVDVAGPGGWNDPDMLVIGNFGLSWNQQVTQMALWAIMAAPLFMSNDLRHISPQAKALLQDKDVIAINQDPLCKQGYQLRQGDNFEVWERPLSGLAWAVAMINRQEIGGPRSYTIAVASLGKGVACNPACFITQLLPVKRKLGFYEWTSRLRSHINPTGTVLLQLENTMQMSLKDLL | 34.5 % WT | 1.7 | 51.4 ± 1.7 % WT | 14482 ± 695 nmol/mg/h | 23873 ± 1021 nmol/mg/h | 85.9 ± 4 % WT
K326Q (protein) MQLRNPELHLGCALALRFLALVSWDIPGARALDNGLARTPTMGWLHWERFMCNLDCQEEPDSCISEKLFMEMAELMVSEGWKDAGYEYLCIDDCWMAPQRDSEGRLQADPQRFPHGIRQLANYVHSKGLKLGIYADVGNKTCAGFPGSFGYYDIDAQTFADWGVDLLKFDGCYCDSLENLADGYKHMSLALNRTGRSIVYSCEWPLYMWPFQKPNYTEIRQYCNHWRNFADIDDSWKSIKSILDWTSFNQERIVDVAGPGGWNDPDMLVIGNFGLSWNQQVTQMALWAIMAAPLFMSNDLRHISPQAKALLQDKDVIAINQDPLGQQGYQLRQGDNFEVWERPLSGLAWAVAMINRQEIGGPRSYTIAVASLGKGVACNPACFITQLLPVKRKLGFYEWTSRLRSHINPTGTVLLQLENTMQMSLKDLL | 26.1 % WT | 1.3 | 78 ± 3 % WT | 22075 ± 1209 nmol/mg/h | 29168 ± 1869 nmol/mg/h | 104.1 ± 5.7 % WT
L324W (protein) MQLRNPELHLGCALALRFLALVSWDIPGARALDNGLARTPTMGWLHWERFMCNLDCQEEPDSCISEKLFMEMAELMVSEGWKDAGYEYLCIDDCWMAPQRDSEGRLQADPQRFPHGIRQLANYVHSKGLKLGIYADVGNKTCAGFPGSFGYYDIDAQTFADWGVDLLKFDGCYCDSLENLADGYKHMSLALNRTGRSIVYSCEWPLYMWPFQKPNYTEIRQYCNHWRNFADIDDSWKSIKSILDWTSFNQERIVDVAGPGGWNDPDMLVIGNFGLSWNQQVTQMALWAIMAAPLFMSNDLRHISPQAKALLQDKDVIAINQDPWGKQGYQLRQGDNFEVWERPLSGLAWAVAMINRQEIGGPRSYTIAVASLGKGVACNPACFITQLLPVKRKLGFYEWTSRLRSHINPTGTVLLQLENTMQMSLKDLL | 19.8 % WT | 1.3 | 73.5 ± 1.8 % WT | 20623 ± 721 nmol/mg/h | 25772 ± 1045 nmol/mg/h | 93.3 ± 4.5 % WT
G325V (protein) MQLRNPELHLGCALALRFLALVSWDIPGARALDNGLARTPTMGWLHWERFMCNLDCQEEPDSCISEKLFMEMAELMVSEGWKDAGYEYLCIDDCWMAPQRDSEGRLQADPQRFPHGIRQLANYVHSKGLKLGIYADVGNKTCAGFPGSFGYYDIDAQTFADWGVDLLKFDGCYCDSLENLADGYKHMSLALNRTGRSIVYSCEWPLYMWPFQKPNYTEIRQYCNHWRNFADIDDSWKSIKSILDWTSFNQERIVDVAGPGGWNDPDMLVIGNFGLSWNQQVTQMALWAIMAAPLFMSNDLRHISPQAKALLQDKDVIAINQDPLVKQGYQLRQGDNFEVWERPLSGLAWAVAMINRQEIGGPRSYTIAVASLGKGVACNPACFITQLLPVKRKLGFYEWTSRLRSHINPTGTVLLQLENTMQMSLKDLL | 17.1 % WT | 9.3 | 2.2 ± 0.2 % WT | 572 ± 30 nmol/mg/h | 5333 ± 294 nmol/mg/h | 19.3 ± 1.1 % WT
